Article PMC12620021 (Nucleic Acids Research, 2025)

How the values were obtained:
[1] = molecular target: T1, RelE1 toxin of Mycobacterium tuberculosis (crystallization construct, expressed as His-SUMO–RelE1) (Mycobacterium tuberculosis, UniProt O50461 1-97); test: crystal structure; conditions: both partners purified
T1 sequence: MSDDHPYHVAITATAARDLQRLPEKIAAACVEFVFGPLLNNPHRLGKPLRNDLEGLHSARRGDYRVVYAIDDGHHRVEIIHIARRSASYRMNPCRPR

crystal structure = molecular target: the molecule itself; test: crystal structure

B1: RelB1 antitoxin of Mycobacterium tuberculosis (crystallization construct) (natural protein)
chain: MAVVPLGEVRNRLSEYVAEVELTHERITITRHGHPAAVLISADDLASIEETLEVLRTPGASEAIREGLADVAAGRFVSNDEIRNRYTAR
- binding result [1]: binds
- binding result (crystal structure): binds
